Measurements: patent US20120058906A1

How the values were obtained:
[1] = target: rHuman EGF R/Fc Chimera, CF (R&D Systems Cat#344-ER) (human) (UniProt P00533); experiment: ECL (MSD Multi-Spot) binding, antigen spotted on plate; Fab 25 nM
[2] = target: rHuman ErbB2/Fc Chimera, CF (R&D Systems Cat#1129-ER) (human) (UniProt P04626); experiment: as above
[3] = target: rHuman HGF R/c-MET/Fc Chimera, CF (R&D Systems Cat#358-MT/CF) (human) (UniProt P08581); experiment: as above
[4] = target: rHuman EGF R/Fc Chimera, CF (R&D Systems Cat#344-ER) (human) (UniProt P00533); experiment: ECL (MSD Multi-Spot) binding, antigen spotted on plate; Fab 500 nM
[5] = target: rHuman ErbB2/Fc Chimera, CF (R&D Systems Cat#1129-ER) (human) (UniProt P04626); experiment: as above
[6] = target: rHuman HGF R/c-MET/Fc Chimera, CF (R&D Systems Cat#358-MT/CF) (human) (UniProt P08581); experiment: as above
[7] = target: rHuman EGF R/Fc Chimera, CF (R&D Systems Cat#344-ER) (human) (UniProt P00533); experiment: ECL (MSD Multi-Spot) binding, antigen spotted on plate; Fab 1.25 nM
[8] = target: rHuman ErbB2/Fc Chimera, CF (R&D Systems Cat#1129-ER) (human) (UniProt P04626); experiment: as above
[9] = target: rHuman HGF R/c-MET/Fc Chimera, CF (R&D Systems Cat#358-MT/CF) (human) (UniProt P08581); experiment: as above
[10] = target: rHuman EGF R/Fc Chimera, CF (R&D Systems Cat#344-ER) (human) (UniProt P00533); experiment: ECL (MSD Multi-Spot) binding, antigen spotted on plate; Fab 0.0625 nM
[11] = target: rHuman ErbB2/Fc Chimera, CF (R&D Systems Cat#1129-ER) (human) (UniProt P04626); experiment: as above
[12] = target: rHuman HGF R/c-MET/Fc Chimera, CF (R&D Systems Cat#358-MT/CF) (human) (UniProt P08581); experiment: as above
[13] = target: rHuman P-Cadherin/Fc Chimera, CF (R&D Systems Cat#861-PC) (human) (UniProt P22223); experiment: MSD ECL multi-spot assay, antigen spotted on plate, Fab 1.57 uM; blank spot 797

| Binder | ECL signal [1] | ECL signal [2] | ECL signal [3] | ECL signal [4] | ECL signal [5] | ECL signal [6] | ECL signal [7] | ECL signal [8] | ECL signal [9] | ECL signal [10] | ECL signal [11] | ECL signal [12] | ECL signal [13] |
| --- | --- | --- | --- | --- | --- | --- | --- | --- | --- | --- | --- | --- | --- |
| Fab VH5-51_IGHD5-18*01>3_IGHJ4*01_G100K_G104T & V3-4_IGLJ1*01 (Fab, V domains shown) VH: EVQLVQSGAEVKKPGESLKISCKGSGYSFTSYWIGWVRQMPGKGLEWMGIIYPGDSDTRYSPSFQGQVTISADKSISTAYLQWSSLKASDTAMYYCARRKYSYTYDYFDYWGQGTLVTVSS VL: QTVVTQEPSFSVSPGGTVTLTCGLSSGSVSTSYYPSWYQQTPGQAPRTLIYSTNTRSSGVPDRFSGSILGNKAALTITGAQADDESDYYCVLYMGSGISYVFGTGTKVTVL | 821 | 927 | 805 | 1110 | 957 | 1300 | 729 | 695 | 774 | 736 | 692 | 643 |  |
| Fab VH1-46_IGHD3-10*01_IGHJ4*01 & O1_IGKJ1*01 (Fab, V domains shown) VH: QVQLVQSGAEVKKPGASVKVSCKASGYTFTSYYMHWVRQAPGQGLEWMGIINPSGGSTSYAQKFQGRVTMTRDTSTSTVYMELSSLRSEDTAVYYCAREYYYGSGSYYNDYFDYWGQGTLVTVSS VL: DIVMTQTPLSLPVTPGEPASISCRSSQSLLDSDDGNTYLDWYLQKPGQSPQLLIYTLSYRASGVPDRFSGSGSGTDFTLKISRVEAEDVGVYYCMQRIEFPSWTFGQGTKVEIK |  |  |  |  |  |  |  |  |  |  |  |  | 2030 |
